The values below come from IntAct's records for PubMed 22632967.

B1: Ribonucleoside-diphosphate reductase subunit M2 (Homo sapiens), P31350 (parent)
chain: MLSLRVPLAPITDPQQLQLSPLKGLSLVDKENTPPALSGTRVLASKTARRIFQEPTEPKTKAAAPGVEDEPLLRENPRRFVIFPIEYHDIWQMYKKAEASFWTAEEVDLSKDIQHWESLKPEERYFISHVLAFFAASDGIVNENLVERFSQEVQITEARCFYGFQIAMENIHSEMYSLLIDTYIKDPKEREFLFNAIETMPCVKKKADWALRWIGDKEATYGERVVAFAAVEGIFFSGSFASIFWLKKRGLMPGLTFSNELISRDEGLHCDFACLMFKHLVHKPSEERVREIIINAVRIEQEFLTEALPVKLIGMNCTLMKQYIEFVADRLMLELGFSKVFRVENPFDFMENISLEGKTNFFEKRVGEYQRMGVMSSPTENSFTLDADF
partner: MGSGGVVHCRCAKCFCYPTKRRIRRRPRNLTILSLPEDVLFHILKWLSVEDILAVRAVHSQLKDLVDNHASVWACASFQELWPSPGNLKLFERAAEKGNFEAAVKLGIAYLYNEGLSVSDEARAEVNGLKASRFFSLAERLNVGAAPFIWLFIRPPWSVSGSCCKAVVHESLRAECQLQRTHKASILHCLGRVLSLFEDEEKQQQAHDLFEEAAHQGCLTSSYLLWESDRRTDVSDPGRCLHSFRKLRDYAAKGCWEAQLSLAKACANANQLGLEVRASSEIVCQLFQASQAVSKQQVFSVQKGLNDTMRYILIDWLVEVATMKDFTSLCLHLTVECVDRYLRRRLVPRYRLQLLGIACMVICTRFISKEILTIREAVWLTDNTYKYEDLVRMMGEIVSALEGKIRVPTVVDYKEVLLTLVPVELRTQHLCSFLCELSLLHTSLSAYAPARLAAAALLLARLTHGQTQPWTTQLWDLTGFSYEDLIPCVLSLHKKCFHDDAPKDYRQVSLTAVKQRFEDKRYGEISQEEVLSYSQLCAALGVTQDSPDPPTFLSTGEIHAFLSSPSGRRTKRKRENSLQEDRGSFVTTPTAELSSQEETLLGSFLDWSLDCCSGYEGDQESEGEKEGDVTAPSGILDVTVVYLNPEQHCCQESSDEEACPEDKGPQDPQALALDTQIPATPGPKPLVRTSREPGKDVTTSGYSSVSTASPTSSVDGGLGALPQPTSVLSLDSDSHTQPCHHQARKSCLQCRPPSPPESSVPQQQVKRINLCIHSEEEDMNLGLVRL
B2: Cyclin-F (Homo sapiens), P41002 (parent)
chain: B1 partner
partner: B1 chain
B3: Cyclin-F (Homo sapiens), P41002 (parent)
chain: B1 partner

In the first experiment the parent is B1. As to conditions: with ccnf_human CCNF.
T33A: the “effect of a mutation on the interaction” value is given as “decreasing interaction strength”.

As to R49A;I51A, the “effect of a mutation on the interaction” value is recorded as “disrupting interaction strength”.

The next experiment covers variants of B1. As to conditions: with ccnf_human CCNF. The source holds these as a separate data set.
Take T33A: the “effect of a mutation on the interaction” value is recorded as “disrupting interaction strength”.

The variants in another experiment derive from B2. As to conditions: with rir2_human RRM2, P31350.
In the case of L35A;P36A, the “effect of a mutation on the interaction” value was “increasing interaction strength”.

The variants in another experiment derive from B3. As to conditions: with cp110_human CCP110, O43303.
Sequence of cp110_human CCP110, O43303 (O43303 whole entry): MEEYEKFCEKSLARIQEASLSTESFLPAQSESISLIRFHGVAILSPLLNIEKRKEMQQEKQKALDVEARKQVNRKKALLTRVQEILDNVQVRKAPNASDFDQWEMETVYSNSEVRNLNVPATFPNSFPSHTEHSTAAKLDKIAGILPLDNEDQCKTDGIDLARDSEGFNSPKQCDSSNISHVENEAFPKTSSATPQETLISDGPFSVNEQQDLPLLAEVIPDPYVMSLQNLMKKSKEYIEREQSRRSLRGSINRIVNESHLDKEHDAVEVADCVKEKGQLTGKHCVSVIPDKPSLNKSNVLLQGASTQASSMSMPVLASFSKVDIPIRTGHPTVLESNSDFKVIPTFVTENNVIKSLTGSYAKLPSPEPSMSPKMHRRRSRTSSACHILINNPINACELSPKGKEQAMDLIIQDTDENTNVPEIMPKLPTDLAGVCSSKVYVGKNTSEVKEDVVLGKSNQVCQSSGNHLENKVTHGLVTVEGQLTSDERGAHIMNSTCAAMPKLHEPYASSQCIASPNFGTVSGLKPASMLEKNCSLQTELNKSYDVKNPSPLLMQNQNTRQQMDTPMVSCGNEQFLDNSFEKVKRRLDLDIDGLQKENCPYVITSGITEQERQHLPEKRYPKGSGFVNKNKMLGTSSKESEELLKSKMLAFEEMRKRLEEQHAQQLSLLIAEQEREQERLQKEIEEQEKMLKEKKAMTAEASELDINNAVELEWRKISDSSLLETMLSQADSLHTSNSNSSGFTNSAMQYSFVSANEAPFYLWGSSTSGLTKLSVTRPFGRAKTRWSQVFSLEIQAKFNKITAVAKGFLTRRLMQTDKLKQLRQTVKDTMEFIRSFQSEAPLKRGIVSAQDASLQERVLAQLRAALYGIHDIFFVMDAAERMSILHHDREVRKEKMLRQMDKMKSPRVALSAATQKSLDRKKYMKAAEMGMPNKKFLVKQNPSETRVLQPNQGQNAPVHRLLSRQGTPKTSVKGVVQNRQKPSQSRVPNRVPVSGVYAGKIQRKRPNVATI
With L35A;P36A, the “effect of a mutation on the interaction” value was “increasing interaction strength”.
